From article PMC3285612, “Simukunin from the Salivary Glands of the Black Fly Simulium vittatum Inhibits Enzymes That Regulate Clotting and Inflammatory Responses” (PLoS ONE, 2012)

Experiments:
[1] = target: activated coagulation factor XI (FXIa) (human); assay: cell-based or functional assay
[2] = target: T1, elastase (purified from human sputum) (human, UniProt P08246 30-267); assay: cell-based or functional assay
T1 sequence (looked up): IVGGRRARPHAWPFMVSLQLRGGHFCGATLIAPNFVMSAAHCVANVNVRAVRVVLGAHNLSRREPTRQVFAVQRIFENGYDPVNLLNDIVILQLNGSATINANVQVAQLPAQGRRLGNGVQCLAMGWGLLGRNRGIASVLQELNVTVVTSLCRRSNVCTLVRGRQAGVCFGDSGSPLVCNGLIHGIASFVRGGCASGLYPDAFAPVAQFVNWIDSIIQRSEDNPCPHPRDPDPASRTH

cathepsin G [3] = target: T2, cathepsin G (human, UniProt P08311 21-244); assay: cell-based or functional assay
T2 sequence (looked up): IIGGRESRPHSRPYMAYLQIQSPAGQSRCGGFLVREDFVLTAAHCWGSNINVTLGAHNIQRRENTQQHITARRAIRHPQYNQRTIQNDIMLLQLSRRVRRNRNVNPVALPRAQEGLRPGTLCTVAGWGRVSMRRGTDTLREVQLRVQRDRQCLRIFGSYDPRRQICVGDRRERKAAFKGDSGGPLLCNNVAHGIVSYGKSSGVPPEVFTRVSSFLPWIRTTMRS

plasmin = plasmin (human); assay: cell-based or functional assay
kallikrein = kallikrein (human, UniProt P03952 20-638); assay: cell-based or functional assay
[4] = target: trypsin (sequencing grade) (human, UniProt P07477 16-247); assay: cell-based or functional assay
skin β-tryptase = skin β-tryptase (human, UniProt Q15661 19-275); assay: cell-based or functional assay
[5] = target: T1, elastase (purified from human sputum); assay: SPR; kinetics: rSimukunin immobilised on a CM5 chip by amine coupling (475.3 RU); FXa 3.1-50 nM or elastase 0.45-3.75 nM injected for 180 s at 30 µl/minute, 25°C; HBS-P (10 mM Hepes pH 7.4, 150 mM NaCl, 0.005% P20); global fit to a 1:1 Langmuir model; settings: both partners purified
[6] = target: T1, elastase (purified from human sputum); assay: enzyme inhibition assay (Ki from IC50 by Cheng and Prusoff); rSimukunin titrated against a constant concentration of enzyme, pre-incubated 5 min, fluorogenic peptidyl substrate 250 µM, 30°C; Ki calculated from the IC50 and the substrate's Km; estimated; settings: both partners purified
cathepsin G [7] = target: T2, cathepsin G; assay: as above; settings: both partners purified

activated coagulation factor XI (FXIa) (human), sequence (chain, as listed by the source, chain 1 of 2): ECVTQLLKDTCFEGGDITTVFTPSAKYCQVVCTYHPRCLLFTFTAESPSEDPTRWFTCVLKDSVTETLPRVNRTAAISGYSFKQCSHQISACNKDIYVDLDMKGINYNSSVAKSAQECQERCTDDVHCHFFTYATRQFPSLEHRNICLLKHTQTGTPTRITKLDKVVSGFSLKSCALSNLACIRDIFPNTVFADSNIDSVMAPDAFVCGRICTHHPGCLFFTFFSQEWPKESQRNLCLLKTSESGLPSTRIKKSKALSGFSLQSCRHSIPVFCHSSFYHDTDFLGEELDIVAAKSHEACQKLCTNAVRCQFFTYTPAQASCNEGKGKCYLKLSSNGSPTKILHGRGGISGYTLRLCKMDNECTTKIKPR
activated coagulation factor XI (FXIa) (human), sequence (chain, as listed by the source, chain 2 of 2): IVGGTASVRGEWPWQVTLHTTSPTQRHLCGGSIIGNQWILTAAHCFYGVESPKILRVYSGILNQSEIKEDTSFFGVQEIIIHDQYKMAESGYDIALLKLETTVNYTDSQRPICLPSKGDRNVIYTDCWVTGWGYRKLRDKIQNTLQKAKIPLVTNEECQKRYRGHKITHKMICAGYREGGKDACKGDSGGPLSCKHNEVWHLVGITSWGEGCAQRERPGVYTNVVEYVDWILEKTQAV
trypsin (sequencing grade), sequence (P07477 16-247): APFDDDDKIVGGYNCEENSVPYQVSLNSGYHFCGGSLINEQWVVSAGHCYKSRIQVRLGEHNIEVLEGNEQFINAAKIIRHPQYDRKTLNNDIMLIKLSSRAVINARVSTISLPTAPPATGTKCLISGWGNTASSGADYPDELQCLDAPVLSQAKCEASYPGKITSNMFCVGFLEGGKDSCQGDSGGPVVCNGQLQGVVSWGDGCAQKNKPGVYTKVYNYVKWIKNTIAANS
kallikrein, sequence (P03952 20-638): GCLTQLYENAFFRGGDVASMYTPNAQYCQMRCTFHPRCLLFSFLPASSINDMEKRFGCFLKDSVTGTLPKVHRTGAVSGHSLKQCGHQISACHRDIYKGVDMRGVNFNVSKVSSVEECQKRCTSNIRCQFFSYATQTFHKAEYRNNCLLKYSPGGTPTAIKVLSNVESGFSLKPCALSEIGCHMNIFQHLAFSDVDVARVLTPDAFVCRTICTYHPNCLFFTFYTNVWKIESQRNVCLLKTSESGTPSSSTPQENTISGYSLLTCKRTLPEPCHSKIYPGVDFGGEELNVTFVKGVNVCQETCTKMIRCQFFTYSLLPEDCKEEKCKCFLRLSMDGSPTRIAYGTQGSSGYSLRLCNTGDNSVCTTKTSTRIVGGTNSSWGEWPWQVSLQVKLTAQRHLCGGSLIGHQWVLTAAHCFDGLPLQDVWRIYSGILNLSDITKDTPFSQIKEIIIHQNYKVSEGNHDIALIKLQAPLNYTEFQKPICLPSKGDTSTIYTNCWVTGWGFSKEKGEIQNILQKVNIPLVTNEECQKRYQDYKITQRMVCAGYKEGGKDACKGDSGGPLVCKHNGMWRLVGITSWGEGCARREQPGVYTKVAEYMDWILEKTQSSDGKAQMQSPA
plasmin (human), sequence (P00747 20-580, chain 1 of 2): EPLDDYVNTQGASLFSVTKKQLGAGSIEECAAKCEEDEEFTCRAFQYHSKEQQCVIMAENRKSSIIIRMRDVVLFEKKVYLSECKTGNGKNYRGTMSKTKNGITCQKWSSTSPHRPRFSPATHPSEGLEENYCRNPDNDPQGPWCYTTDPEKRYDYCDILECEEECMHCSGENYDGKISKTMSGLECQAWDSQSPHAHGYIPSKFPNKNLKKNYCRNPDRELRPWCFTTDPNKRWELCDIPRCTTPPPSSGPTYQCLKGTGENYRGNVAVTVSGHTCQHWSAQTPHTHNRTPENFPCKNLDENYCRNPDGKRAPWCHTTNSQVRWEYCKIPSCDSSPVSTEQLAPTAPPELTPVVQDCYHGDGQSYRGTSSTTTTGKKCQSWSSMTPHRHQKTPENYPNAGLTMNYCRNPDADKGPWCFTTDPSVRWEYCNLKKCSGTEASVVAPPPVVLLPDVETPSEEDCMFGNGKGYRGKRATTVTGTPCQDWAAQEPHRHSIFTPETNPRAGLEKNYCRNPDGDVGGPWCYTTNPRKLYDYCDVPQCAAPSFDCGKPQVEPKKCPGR
plasmin (human), sequence (P00747 581-810, chain 2 of 2): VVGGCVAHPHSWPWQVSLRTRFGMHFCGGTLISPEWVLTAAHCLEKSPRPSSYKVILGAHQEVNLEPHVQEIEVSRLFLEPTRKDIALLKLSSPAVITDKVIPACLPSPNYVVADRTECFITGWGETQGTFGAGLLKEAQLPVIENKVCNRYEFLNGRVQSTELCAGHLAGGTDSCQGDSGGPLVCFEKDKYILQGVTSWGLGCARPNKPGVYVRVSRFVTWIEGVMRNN
skin β-tryptase, sequence (Q15661 19-275): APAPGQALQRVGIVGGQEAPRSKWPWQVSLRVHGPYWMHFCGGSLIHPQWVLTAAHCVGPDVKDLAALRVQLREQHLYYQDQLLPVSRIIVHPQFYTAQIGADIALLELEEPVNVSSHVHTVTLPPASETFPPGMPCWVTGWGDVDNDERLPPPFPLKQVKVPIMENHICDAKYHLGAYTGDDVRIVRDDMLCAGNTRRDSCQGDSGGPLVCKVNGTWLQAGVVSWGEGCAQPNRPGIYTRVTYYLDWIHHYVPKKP

B1: recombinant Simukunin (rSV-66) (natural protein, Simulium vittatum, UniProt B5M0W4 20-102, looked up)
chain: QENVCNLPVDEGVCRALFKRFYYEPATDSCKEFYYGGCEGNGNRFKSKKECILKCQKNKQLIKTRKRKPKKTTKPPIPIISLD
notes: SV-66 (Simukunin), Kunitz family salivary protein of the black fly Simulium vittatum; full-length ORF without signal peptide was cloned; numbers count on: the mature protein; pET-30 Ek/LIC vector; The purified protein ran as a doublet; also called rSimukunin; WT rSimukunin; source: E. coli BL21 (DE3), purified (Ni-NTA, RP-HPLC)
- IC50 of inhibition of enzyme activity (fluorogenic peptidyl substrate, 250 µM); Factor XIa 0.06 nM [1]: 56.7 nM
- IC50 of inhibition of enzyme activity (fluorogenic peptidyl substrate, 250 µM); elastase 0.18 nM [2]: 4.9 nM
- IC50 of inhibition of enzyme activity (fluorogenic peptidyl substrate, 250 µM); cathepsin G 6.7 nM (cathepsin G [3]): 217 nM
- IC50 of inhibition of enzyme activity (fluorogenic peptidyl substrate, 250 µM); plasmin 0.2 nM (plasmin): 32.2 nM
- IC50 of inhibition of enzyme activity (fluorogenic peptidyl substrate, 250 µM); kallikrein 0.08 nM (kallikrein): 91.8 nM
- IC50 of inhibition of enzyme activity (fluorogenic peptidyl substrate, 250 µM); trypsin 0.1 nM [4]: 379 nM
- IC50 of inhibition of enzyme activity (fluorogenic peptidyl substrate, 250 µM); β-tryptase 0.01 nM (skin β-tryptase): 66.8 nM
- Kd [5]: 0.4 nM
- koff [5]: 0.0173 s⁻¹
- kon [5]: 4.3e+07 M⁻¹ s⁻¹
- Ki [6]: ~0.65 nM
- Ki (cathepsin G [7]): 100 nM
